The values that follow come from publication PMC4931565, “Higher‐order assemblies of oligomeric cargo receptor complexes form the membrane scaffold of the Cvt vesicle” (EMBO Reports, 2016).

Values joined by “and” are separate entries in the source; they are usually repeats but may differ in a detail not shown here. Equal entries are not always repeated.

B1: Saccharomyces cerevisiae Ams1 (alpha-mannosidase 1), wild type (natural protein, S. cerevisiae, UniProt P22855 1-1083, looked up)
chain: MSSEDIIYDPQFKPVQGIYENRLRQFIDTGGDYHDLNLPKFYDKKRISLDHDHVKVWWYQVSFERGSSPVSPDKRPSWKSIIERDKKGELEFREANINQPFGPSWSTTWFKVKISLPEDWVKSNEQLLFQWDCSNEGIVIDPKTLIPVTAFSGGERTEYVLPKTSDGKHFFYIEAGNNGMFGCGAGSTINPPDDNRFFHLRKADIVWPDLDARALYIDFWMLGDAARELPGDSWQKHQARQLGNAVMNLFDPNDRSSVRKCRELLQREYFDSFLESSKVYEQGESQVLTNVYGIGNCHIDTAWLWPFAETRRKIVRSWSSQCTLMDRFPEYKFVASQAQQFKWLLEDHPEFFNKVLIPKIQQSQFFAVGGTWVENDTNIPSGESLARQFFFGQRFFLKHFGLKSKIFWLPDTFGYSSQMPQLCRLSGIDKFLTQKLSWNNINSFPHSTFNWAGIDGSQLLTHMPPGNTYTADSHFGDVLRTAKQNKTPEYYGSGLMLYGKGDGGGGPTEEMLQKMRRIRSMNNRNGNVIPKLQVGITVDEFYDDILKRTNQGHDLPTWSGELYFEFHRGTYTSQAQTKKLMRLSEIKLHDLEWIAAKTSVLYPDSYKYPSKQINELWENVLLCQFHDVLPGSCIEMVYKYEAVPMLHNVVKECTSLIDKTVQFLQSQSKADLVEMRTLTWSKPEKVSEECSLNGSYTSSVTGYDDYIVLANGKLKVIICKKTGVITSITDETLGVEYLDTEHGRNKLGANQFVIYDDKPLGWQAWDTELYSVNQYKYVTKPKKVQVSCNTKEKCAVEVIFQISEKCKIKSVISLNATAVTDAKLSKVDISTTVENWDARNKFLKVEFPVNIRNDFASYETQFGITKRPTHYNTSWDVAKFEVCHHKFADYSEYSKGVSILNDCKYGFSTHGNLMRLSLLRSPKAPDAHADMGTHEIKYAIYPHRGALSSDTVKLAHEFNYCFKYKLPKDIGMNFDDIISISGDENVILSNIKRGEDDSAVKSNYSLNPRDEQSIVVRVYESLGGESFASLNTTLNLKRIEKVDNLEMKVYKSLTATRDESNHAINRIPIKLRPFEIASFRLYF
notes: alpha-mannosidase 1 (Ams1) of S. cerevisiae, 125-kDa full-length protein (model covers residues up to 1083); Expression from pGAPZ-His6-Ams1; also called His6-Ams1; his-Ams1; source: Pichia pastoris SMD1168, purified

Data set [1] has as its target Chaetomium thermophilum mApe1 (Chaetomium thermophilum). The experiment in a line: negative stain EM; purified protein or purified complex, 2% uranyl acetate, droplet technique; particles and class averages.
Data set [2] has the same target. Briefly: crystal structure; ct-mApe1, hanging drop, 4 C, 100 mM Hepes pH 6.6, 4 M sodium formate; 2.8 A.
Data set [3] deals with the molecule itself. Briefly: cryo-EM structure; His6-Ams1 0.4 mg/ml in 50 mM Tris-HCl, 175 mM NaCl, 75 mM imidazole; D2 symmetry, 6.3 A.
Data set [4] concerns the molecule itself. The experiment in a line: negative stain EM; purified protein or purified complex, 2% uranyl acetate, droplet technique; particles and class averages.
The target of data set [5] is B1. Briefly: pull-down; purified MBP-Atg19 or MBP (1 uM) mixed with his-Ams1 (1 uM), mApe1 (1 uM) or prApe1 (0.7 uM) overnight at 4 C in 50 mM Tris-HCl pH 7.5, 25 mM NaCl, 5 mM MgCl2, 1 mM DTT, 0.2% NP-40; captured on amylose beads; SDS-PAGE, Coomassie. The conditions noted are these: both partners purified.
Data set [6] has as its target T1, Saccharomyces cerevisiae mApe1 (mature Ape1 lacking the N-terminal propeptide) (S. cerevisiae), P14904.
T1 chain: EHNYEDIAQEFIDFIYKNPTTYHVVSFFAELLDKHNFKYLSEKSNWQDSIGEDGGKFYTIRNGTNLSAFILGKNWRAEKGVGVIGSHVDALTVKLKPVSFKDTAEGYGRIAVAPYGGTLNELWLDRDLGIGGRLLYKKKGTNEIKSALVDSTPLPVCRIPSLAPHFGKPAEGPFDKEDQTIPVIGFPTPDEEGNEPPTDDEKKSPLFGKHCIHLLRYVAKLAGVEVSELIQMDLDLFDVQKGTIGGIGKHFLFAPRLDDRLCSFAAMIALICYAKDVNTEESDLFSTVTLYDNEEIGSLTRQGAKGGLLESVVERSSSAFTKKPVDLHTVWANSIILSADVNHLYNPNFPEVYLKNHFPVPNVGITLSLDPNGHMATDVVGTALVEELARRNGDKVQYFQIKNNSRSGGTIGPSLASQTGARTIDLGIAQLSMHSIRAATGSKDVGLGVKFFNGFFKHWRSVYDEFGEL
Briefly: negative stain EM; purified protein or purified complex, 2% uranyl acetate, droplet technique; particles and class averages. The conditions noted are these: remark: other sources report otherwise.

For data set [7], the target named is T1, Saccharomyces cerevisiae mApe1 (mature …). The experiment in a line: negative stain EM; GraFix-purified sc-mApe1 (10-30% glycerol with 0-0.15% glutaraldehyde gradient, 50 mM Hepes pH 7.5, 150 mM NaCl); 3D reconstruction with tetrahedral symmetry, 24 A. The conditions noted are these: remark: other sources report otherwise.

For the molecule “Chaetomium thermophilum mApe1 (natural protein)”, the stoichiometry N in data set [1] and in data set [2] was 12 throughout.
As to B1, the “stoichiometry N” value in data set [3] was found to be 4.

B2: Saccharomyces cerevisiae Ams1 W234E mutant (natural protein, S. cerevisiae, UniProt P22855 1-1083, looked up)
chain: MSSEDIIYDPQFKPVQGIYENRLRQFIDTGGDYHDLNLPKFYDKKRISLDHDHVKVWWYQVSFERGSSPVSPDKRPSWKSIIERDKKGELEFREANINQPFGPSWSTTWFKVKISLPEDWVKSNEQLLFQWDCSNEGIVIDPKTLIPVTAFSGGERTEYVLPKTSDGKHFFYIEAGNNGMFGCGAGSTINPPDDNRFFHLRKADIVWPDLDARALYIDFWMLGDAARELPGDSEQKHQARQLGNAVMNLFDPNDRSSVRKCRELLQREYFDSFLESSKVYEQGESQVLTNVYGIGNCHIDTAWLWPFAETRRKIVRSWSSQCTLMDRFPEYKFVASQAQQFKWLLEDHPEFFNKVLIPKIQQSQFFAVGGTWVENDTNIPSGESLARQFFFGQRFFLKHFGLKSKIFWLPDTFGYSSQMPQLCRLSGIDKFLTQKLSWNNINSFPHSTFNWAGIDGSQLLTHMPPGNTYTADSHFGDVLRTAKQNKTPEYYGSGLMLYGKGDGGGGPTEEMLQKMRRIRSMNNRNGNVIPKLQVGITVDEFYDDILKRTNQGHDLPTWSGELYFEFHRGTYTSQAQTKKLMRLSEIKLHDLEWIAAKTSVLYPDSYKYPSKQINELWENVLLCQFHDVLPGSCIEMVYKYEAVPMLHNVVKECTSLIDKTVQFLQSQSKADLVEMRTLTWSKPEKVSEECSLNGSYTSSVTGYDDYIVLANGKLKVIICKKTGVITSITDETLGVEYLDTEHGRNKLGANQFVIYDDKPLGWQAWDTELYSVNQYKYVTKPKKVQVSCNTKEKCAVEVIFQISEKCKIKSVISLNATAVTDAKLSKVDISTTVENWDARNKFLKVEFPVNIRNDFASYETQFGITKRPTHYNTSWDVAKFEVCHHKFADYSEYSKGVSILNDCKYGFSTHGNLMRLSLLRSPKAPDAHADMGTHEIKYAIYPHRGALSSDTVKLAHEFNYCFKYKLPKDIGMNFDDIISISGDENVILSNIKRGEDDSAVKSNYSLNPRDEQSIVVRVYESLGGESFASLNTTLNLKRIEKVDNLEMKVYKSLTATRDESNHAINRIPIKLRPFEIASFRLYF
notes: alpha-mannosidase 1 (Ams1) of S. cerevisiae with W234E in the N-terminal four-helix bundle; Same construct as m4 (pGAPZ-His6-Ams1) with the point mutation; also called W234E dimers; source: Pichia pastoris SMD1168, purified
Regarding B2, the “stoichiometry N” value in data set [4] was 2.

B3: MBP-Atg19 (Saccharomyces cerevisiae Atg19 with N-terminal MBP) (natural protein, S. cerevisiae, UniProt P35193 1-415, looked up)
chain: MNNSKTNQQMNTSMGYPLTVYDECNKFQLIVPTLDANIMLWCIGQLSLLNDSNGCKHLFWQPNDKSNVRILLNNYDYGHLFKYLQCQRKCSVYIGEGTLKKYNLTISTSFDNFLDLTPSEEKESLCREDAHEDPVSPKAGSEEEISPNSTSNVVVSRECLDNFMKQLLKLEESLNKLELEQKVTNKEPNHRISGTIDIPEDRSELVNFFTELKTVKQLEDVFQRYHDYERLSQECDSKTEIASDHSKKETKIEVEPPNERSLQITMNQRDNSLYFQLFNNTNSVLAGNCKLKFTDAGDKPTTQIIDMGPHEIGIKEYKEYRYFPYALDLEAGSTIEIENQYGEVIFLGKYGSSPMINLRPPSRLSAESLQASQEPFYSFQIDTLPELDDSSIISTSISLSYDGDDNEKALTWEEL
notes: autophagy receptor Atg19 of S. cerevisiae, from cDNA; source: Sf21, purified (amylose beads, eluted with maltose); also in Sf21 lysate, co-expressed with prApe1; not shown: MBP, N-terminal, kept
Turning to B3, the binding result in data set [5] is given as “binds”.

B4: Saccharomyces cerevisiae mApe1 (mature Ape1 lacking the N-terminal propeptide), P14904 46-514 (natural protein)
chain: EHNYEDIAQEFIDFIYKNPTTYHVVSFFAELLDKHNFKYLSEKSNWQDSIGEDGGKFYTIRNGTNLSAFILGKNWRAEKGVGVIGSHVDALTVKLKPVSFKDTAEGYGRIAVAPYGGTLNELWLDRDLGIGGRLLYKKKGTNEIKSALVDSTPLPVCRIPSLAPHFGKPAEGPFDKEDQTIPVIGFPTPDEEGNEPPTDDEKKSPLFGKHCIHLLRYVAKLAGVEVSELIQMDLDLFDVQKGTIGGIGKHFLFAPRLDDRLCSFAAMIALICYAKDVNTEESDLFSTVTLYDNEEIGSLTRQGAKGGLLESVVERSSSAFTKKPVDLHTVWANSIILSADVNHLYNPNFPEVYLKNHFPVPNVGITLSLDPNGHMATDVVGTALVEELARRNGDKVQYFQIKNNSRSGGTIGPSLASQTGARTIDLGIAQLSMHSIRAATGSKDVGLGVKFFNGFFKHWRSVYDEFGEL
B4: the stoichiometry N was 12 and 6 in data set [6]; 12 in data set [7].

B5: Saccharomyces cerevisiae prApe1 (vacuolar aminopeptidase I with its N-terminal propeptide) (natural protein, S. cerevisiae, UniProt P14904 1-514, looked up)
chain: MEEQREILEQLKKTLQMLTVEPSKNNQIANEEKEKKENENSWCILEHNYEDIAQEFIDFIYKNPTTYHVVSFFAELLDKHNFKYLSEKSNWQDSIGEDGGKFYTIRNGTNLSAFILGKNWRAEKGVGVIGSHVDALTVKLKPVSFKDTAEGYGRIAVAPYGGTLNELWLDRDLGIGGRLLYKKKGTNEIKSALVDSTPLPVCRIPSLAPHFGKPAEGPFDKEDQTIPVIGFPTPDEEGNEPPTDDEKKSPLFGKHCIHLLRYVAKLAGVEVSELIQMDLDLFDVQKGTIGGIGKHFLFAPRLDDRLCSFAAMIALICYAKDVNTEESDLFSTVTLYDNEEIGSLTRQGAKGGLLESVVERSSSAFTKKPVDLHTVWANSIILSADVNHLYNPNFPEVYLKNHFPVPNVGITLSLDPNGHMATDVVGTALVEELARRNGDKVQYFQIKNNSRSGGTIGPSLASQTGARTIDLGIAQLSMHSIRAATGSKDVGLGVKFFNGFFKHWRSVYDEFGEL
notes: vacuolar aminopeptidase I (Ape1) of S. cerevisiae, 55-kDa zymogen including the N-terminal propeptide; only TEV cleavage of MBP is described there; also called sc-prApe1; full-length prApe1; source: Sf21, purified (glutathione beads, 3C cleavage, Superose 6); also co-expressed with MBP-Atg19 in Sf21 and co-purified on amylose beads; not shown: GST, N-terminal, cleaved; copies: 12
With B5, the “stoichiometry N” value in data set [4] amounted to 12.

The stoichiometry N is the number of molecules, sites or subunits per partner or assembly.
